Data as given in the supplement of paper PMC11865577.

system: TO-N3 (biotin conjugate); test: pull-down binding Z-score (relative to library population); higher = stronger binding; conditions: RNA library: Library-2
Summary of the method: (§1)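 Heat-folded RNA library (1 μg, Cy5 or Cy3 end label, phosphate/NaCl/KCl buffer) was captured for 60 min at 25 °C on streptavidin beads displaying 100 pmol of biotin-conjugated small molecule, then washed three times. The bound fraction, eluted in hot SDS, was hybridised to a DNA barcode microarray at 55.5 °C for 20 h. Z-scores for binding were taken against the library mean and standard deviation after beads-only subtraction and trimmed averaging of replicate barcoded probes.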

Q: “UAGGUGUUUUAAUGUCUAAUUUAGGCAUGCCUUCUUACUGUACUGGUUACAGAGAAGGCUAUUUGAACUCUA” was tested. Which “pull-down binding Z-score” value did it give?
A: -0.806

Q: For “UAGGUGUUUUAAUGUCUAAUUUAGGCAUGCCUUCUUACUGUACUGGUUACAGAGAAGGCUAUUUGAACUCUACUAAUGUCACUAUUGCAACCUA”, which “pull-down binding Z-score” value is on record?
A: -0.0965

Q: “UAGGUUUUUCUACAGGUGUUAACCUA [SHAPE_invitro_SARS-CoV-2_Motif_336]” was tested. Which “pull-down binding Z-score” value did it give?
A: -0.981

Q: “UAGUACAACAGGAGUCACCUUUUGUUAUGAUGUCAGCACCACCUGCUCAGUAUGAACUUAAGCAUGGUACAUUUACUUGUGCUA” was tested. Which “pull-down binding Z-score” value did it give?
A: -0.168

Q: Which “pull-down binding Z-score” value does the source give for “UAGUACAUUUAUUAGUGAUGAAGUUGCGAGAGACUUGUCACUACAGUUUAAAAGACCAAUAAAUCCUACUG [SHAPE_invivo_SARS-CoV-2_Multi_21_ComplexLevel_1]” here?
A: 0.716

Q: For “UAGUAGCUGGUGGUAUUGUAGCUAUCGUAGUAACAUGCCUUGCCUACUA [DMSMaPseq_invitro_SARS-CoV-2_Motif_172]”, which “pull-down binding Z-score” value is on record?
A: -0.871

Q: For “UAGUCCUGUUGCACUACGACAGAUGUCUUGUGCUGCCGGUACUA [DMSMaPseq_invitro_SARS-CoV-2_Motif_226]”, which “pull-down binding Z-score” value is on record?
A: -0.821

Q: For UAGUGAUGAAGUUGCGAGAGACUUGUCACUA, which “pull-down binding Z-score” value is on record?
A: -0.688

Q: Which “pull-down binding Z-score” value does the source give for “UAGUGCAAAGAAUAGAGCUCGCACCGUAGCUGGUGUCUCUAUCUGUAGUACUA” here?
A: -0.0718

Q: How did the “pull-down binding Z-score” value turn out when UAGUGCUAUGCAGACAAUGCUUUUCACUA was run?
A: -1.14

Q: For “UAGUGUUACCACAGAAAUUCUACCAGUGUCUAUGACCAAGACAUCAGUAGAUUGUACAAUGUACAUUUGUGGUGAUUCAACUG [DMSMaPseq_invitro_SARS-CoV-2_Multi_72_ComplexLevel_1]”, which “pull-down binding Z-score” value is on record?
A: 0.228

Q: For “UAGUUACACGGUGUUUAAACCGUGUUUGUACUA [SHAPE_invivo_SARS-CoV-2_Motif_139]”, which “pull-down binding Z-score” value is on record?
A: -1.15

Q: Which “pull-down binding Z-score” value does the source give for UAGUUUUAAGGAAUUA here?
A: -1.1

Q: With “UAUAAAGUUUAUUAUGGUAAUGCUUUAGAUCAAGCCAUUUCCAUGUGGGCUCUUAUA” as the sequence, how does the “pull-down binding Z-score” value read?
A: -0.806

Q: For “UAUAACAAUACUAGAUGGAAUUUCACAGUAUUCACUGAGACUCAUUGAUGCUAUGAUGUUCACAUCUGAUUUGGCUACUAACAAUCUAGUUGUA”, which “pull-down binding Z-score” value is on record?
A: -0.688

Q: Which “pull-down binding Z-score” value does the source give for UAUAAUAUGAGAGUUAUA here?
A: -0.233

Q: Which “pull-down binding Z-score” value does the source give for “UAUAUGCCUUAUUUCUUUACUUUAUUGCUACAAUUGUGUACUUUUACUAGAAGUACAAAUUCUAGAAUUAAAGCAUCUA [DMSMaPseq_invitro_SARS-CoV-2_Motif_128]” here?
A: -0.348

Q: Which “pull-down binding Z-score” value does the source give for “UAUCCAAACGCAAGCUUCGAUAAUUUUAAGUUUGUAUGUGAUA [DMSMaPseq_invitro_SARS-CoV-2_Motif_115]” here?
A: -0.225

Q: “UAUGAGGUUUAGAAGAGCUUUUGGUGAAUACAGUCAUGUAGUUGCCUUUAAUACUUUACUAUUCCUUAUG” was tested. Which “pull-down binding Z-score” value did it give?
A: -0.62

Q: Which “pull-down binding Z-score” value does the source give for “UAUGUCUGAAGCAAAAUGUUGGACUGAGACUGACCUUACUAAAGGACCUCAUGAAUUUUGCUCUCAACAUA” here?
A: 0.246

Q: For UAUUACAGAUCUUUACCAGGAGUUUUCUGUGGUG, which “pull-down binding Z-score” value is on record?
A: -0.72

Q: With UAUUAUUGCUAUGUCUGCUUUUGCAAUGAUG as the sequence, how does the “pull-down binding Z-score” value read?
A: -1.29

Q: With UAUUGAAAUCAAUA as the sequence, how does the “pull-down binding Z-score” value read?
A: -0.987

Q: “UAUUUCAUAACAGAUGCGCAAACAGGUUCAUCUAAGUGUGUGUGUUCUGUUAUUGAUUUA” was tested. Which “pull-down binding Z-score” value did it give?
A: -1.16

Q: UAUUUGCCUAUAGAUA was tested. Which “pull-down binding Z-score” value did it give?
A: -0.128

Q: “UCAAAAAGAAAUUGA [SHAPE_invivo_SARS-CoV-2_Motif_472]” was tested. Which “pull-down binding Z-score” value did it give?
A: -0.459

Q: How did the “pull-down binding Z-score” value turn out when “UCAAGACUAUUCAACCAAGGGUUGAAAAGAAAAAGCUUGA [SHAPE_invivo_SARS-CoV-2_Motif_22]” was run?
A: -0.551

Q: Which “pull-down binding Z-score” value does the source give for UCAAUUAUUAUAAGAAAGUUGA here?
A: 0.0296

system: TO-N3-2 (biotin conjugate); test: as above; conditions: RNA library: Library-2
Summary of the method: as §1

Q: With “UAGGUGUUUUAAUGUCUAAUUUAGGCAUGCCUUCUUACUGUACUGGUUACAGAGAAGGCUAUUUGAACUCUA” as the sequence, how does the “pull-down binding Z-score” value read?
A: -0.982

Q: For “UAGGUGUUUUAAUGUCUAAUUUAGGCAUGCCUUCUUACUGUACUGGUUACAGAGAAGGCUAUUUGAACUCUACUAAUGUCACUAUUGCAACCUA”, which “pull-down binding Z-score” value is on record?
A: -0.12

Q: Which “pull-down binding Z-score” value does the source give for “UAGGUUUUUCUACAGGUGUUAACCUA [SHAPE_invitro_SARS-CoV-2_Motif_336]” here?
A: -0.856

Q: “UAGUACAACAGGAGUCACCUUUUGUUAUGAUGUCAGCACCACCUGCUCAGUAUGAACUUAAGCAUGGUACAUUUACUUGUGCUA” was tested. Which “pull-down binding Z-score” value did it give?
A: -0.0314

Q: Which “pull-down binding Z-score” value does the source give for “UAGUACAUUUAUUAGUGAUGAAGUUGCGAGAGACUUGUCACUACAGUUUAAAAGACCAAUAAAUCCUACUG [SHAPE_invivo_SARS-CoV-2_Multi_21_ComplexLevel_1]” here?
A: 0.172

Q: “UAGUAGCUGGUGGUAUUGUAGCUAUCGUAGUAACAUGCCUUGCCUACUA [DMSMaPseq_invitro_SARS-CoV-2_Motif_172]” was tested. Which “pull-down binding Z-score” value did it give?
A: -1.01

Q: With “UAGUCCUGUUGCACUACGACAGAUGUCUUGUGCUGCCGGUACUA [DMSMaPseq_invitro_SARS-CoV-2_Motif_226]” as the sequence, how does the “pull-down binding Z-score” value read?
A: -0.478

Q: How did the “pull-down binding Z-score” value turn out when UAGUGAUGAAGUUGCGAGAGACUUGUCACUA was run?
A: -0.661

Q: Which “pull-down binding Z-score” value does the source give for “UAGUGCAAAGAAUAGAGCUCGCACCGUAGCUGGUGUCUCUAUCUGUAGUACUA” here?
A: 0.18

Q: Which “pull-down binding Z-score” value does the source give for UAGUGCUAUGCAGACAAUGCUUUUCACUA here?
A: -0.838

Q: “UAGUGUUACCACAGAAAUUCUACCAGUGUCUAUGACCAAGACAUCAGUAGAUUGUACAAUGUACAUUUGUGGUGAUUCAACUG [DMSMaPseq_invitro_SARS-CoV-2_Multi_72_ComplexLevel_1]” was tested. Which “pull-down binding Z-score” value did it give?
A: -0.417

Q: How did the “pull-down binding Z-score” value turn out when “UAGUUACACGGUGUUUAAACCGUGUUUGUACUA [SHAPE_invivo_SARS-CoV-2_Motif_139]” was run?
A: -1.11

Q: For UAGUUUUAAGGAAUUA, which “pull-down binding Z-score” value is on record?
A: -1.56

Q: Which “pull-down binding Z-score” value does the source give for “UAUAAAGUUUAUUAUGGUAAUGCUUUAGAUCAAGCCAUUUCCAUGUGGGCUCUUAUA” here?
A: -0.695

Q: How did the “pull-down binding Z-score” value turn out when “UAUAACAAUACUAGAUGGAAUUUCACAGUAUUCACUGAGACUCAUUGAUGCUAUGAUGUUCACAUCUGAUUUGGCUACUAACAAUCUAGUUGUA” was run?
A: -1.1

Q: How did the “pull-down binding Z-score” value turn out when UAUAAUAUGAGAGUUAUA was run?
A: -0.882

Q: Which “pull-down binding Z-score” value does the source give for “UAUAUGCCUUAUUUCUUUACUUUAUUGCUACAAUUGUGUACUUUUACUAGAAGUACAAAUUCUAGAAUUAAAGCAUCUA [DMSMaPseq_invitro_SARS-CoV-2_Motif_128]” here?
A: -0.67

Q: Which “pull-down binding Z-score” value does the source give for “UAUCCAAACGCAAGCUUCGAUAAUUUUAAGUUUGUAUGUGAUA [DMSMaPseq_invitro_SARS-CoV-2_Motif_115]” here?
A: -0.609

Q: With “UAUGAGGUUUAGAAGAGCUUUUGGUGAAUACAGUCAUGUAGUUGCCUUUAAUACUUUACUAUUCCUUAUG” as the sequence, how does the “pull-down binding Z-score” value read?
A: -0.84

Q: Which “pull-down binding Z-score” value does the source give for “UAUGUCUGAAGCAAAAUGUUGGACUGAGACUGACCUUACUAAAGGACCUCAUGAAUUUUGCUCUCAACAUA” here?
A: -0.671

Q: How did the “pull-down binding Z-score” value turn out when UAUUACAGAUCUUUACCAGGAGUUUUCUGUGGUG was run?
A: -0.779

Q: For UAUUAUUGCUAUGUCUGCUUUUGCAAUGAUG, which “pull-down binding Z-score” value is on record?
A: -1.18

Q: How did the “pull-down binding Z-score” value turn out when UAUUGAAAUCAAUA was run?
A: -1.72

Q: “UAUUUCAUAACAGAUGCGCAAACAGGUUCAUCUAAGUGUGUGUGUUCUGUUAUUGAUUUA” was tested. Which “pull-down binding Z-score” value did it give?
A: -0.209

Q: With UAUUUGCCUAUAGAUA as the sequence, how does the “pull-down binding Z-score” value read?
A: -0.821

Q: How did the “pull-down binding Z-score” value turn out when “UCAAAAAGAAAUUGA [SHAPE_invivo_SARS-CoV-2_Motif_472]” was run?
A: -0.626

Q: For “UCAAGACUAUUCAACCAAGGGUUGAAAAGAAAAAGCUUGA [SHAPE_invivo_SARS-CoV-2_Motif_22]”, which “pull-down binding Z-score” value is on record?
A: -0.823

Q: UCAAUUAUUAUAAGAAAGUUGA was tested. Which “pull-down binding Z-score” value did it give?
A: -0.425
